Consider two molecules from US20100317830A1, “BACE455, AN ALTERNATIVE SPLICE VARIANT OF THE HUMAN BETA-SECRETASE” (EXONHIT THERAPEUTICS SA, priority 2003, published 2010).

Assay [1] has as its system endogenously expressed APP in SH-SY5Y cells. As to the kind of experiment: Aβ1-40 double antibody sandwich ELISA on conditioned medium of transfected SH-SY5Y cells. Format: cell-based, human. The note with it: SH-SY5Y cells transfected with BACE construct; control = empty vector, set as 100%. The protocol: Cells were harvested 3 days after plating and processed for Western Blotting experiments as described above.
Cell culture supernatants harvested 72 hours after plating were analyzed in a standard double antibody isoform-specific Aβ1-40 ELISA (BioSource International) as follows. […] The detecting antibody is specific for Abeta 1-40 and the conjugated secondary antibody is an anti-rabbit IgG conjugated to horseradish peroxydase. Synthetic human Aβ1-40 standard peptides are serially diluted in the supplied sample diluent for the generation of standard curves.
Human Abeta 1-40 standards were added after washing the plate, as well as 100 μl/well of sample, e.g., conditioned medium of transfected cells. The plate was incubated at 4[deg.] C. overnight. The next day, after washing the plate four times, 100 μl/well rabbit detection antibody was added and incubated for 2 hours on an orbital plate shaker at 20 degree C. […] 100 μl/well stop solution was added and absorbance of each well was read at 450 nm within two hours, with a solution of 100 μl each of chromogen and stop solution as the blank. […] The samples with absorbance values falling within the standard curve were extrapolated (by comparison to the values obtained for the A-β40 and A-β42 standard peptides analyzed on the same plate) from the standard curves and expressed in pg/ml culture medium.
(An ELISA detects its analyte on a solid surface through an enzyme-linked reagent.)

Assay [2] relates to endogenously expressed APP isoforms in SH-SY5Y cells. As to the kind of experiment: Western blot of C99 fragment generation in transfected SH-SY5Y cells. It counts as cell-based, human. How it is done: SH-SY5Y cells for transfection were grown to 80% confluence in Dulbecco's modified Eagle's medium (DMEM) with 10% fetal bovine serum. Transfections were performed using LipofectAmine Plus (Gibco-BRL) with […] per 10*10<6>cells. Three days posttransfection, cells were passaged into medium containing G418 at a concentration of 400 μg/ml. After twenty days growth in selective medium, individual clones were selected and plated into each well of one 96 well plate containing growth medium plus G418. Clones were expanded from the 96 well plate to a 24 well plate and then to a 6 well plate. Clones which had lost initial neuronal-like morphology were not amplified. BACE455 or BACE501 expression in selected clones was assayed by Western Blotting and immunohistochemical analysis using Cterminal-specific antibody.
Cells were harvested 3 days after plating. Cells were washed twice with PBS and lysed in 1 ml CellLytic solution (Sigma) plus protease inhibitors cocktail (Roche Diagnostics) for 15 min. […] Following electrotransfer of the separated polypeptides to PVDF membranes, APP and C99 proteolytic fragment were detected with C-terminal-specific rabbit anti-APP antibody (Serotec, UK) at 1/500 in PBS-Tween 20 0.1%, and the antibody-antigen complexes were visualized using alkaline phosphatase conjugated goat anti-rabbit antibodies (1/5000). […]
On the technique in general: A western blot detects proteins with antibodies after separation by electrophoresis.

B1: BACE501: native full-length human BACE isoform (variant a), NM_012104 (protein, UniProt P56817 1-501, looked up)
chain: MAQALPWLLLWMGAGVLPAHGTQHGIRLPLRSGLGGAPLGLRLPRETDEEPEEPGRRGSFVEMVDNLRGKSGQGYYVEMTVGSPPQTLNILVDTGSSNFAVGAAPHPFLHRYYQRQLSSTYRDLRKGVYVPYTQGKWEGELGTDLVSIPHGPNVTVRANIAAITESDKFFINGSNWEGILGLAYAEIARPDDSLEPFFDSLVKQTHVPNLFSLQLCGAGFPLNQSEVLASVGGSMIIGGIDHSLYTGSLWYTPIRREWYYEVIIVRVEINGQDLKMDCKEYNYDKSIVDSGTTNLRLPKKVFEAAVKSIKAASSTEKFPDGFWLGEQLVCWQAGTTPWNIFPVISLYLMGEVTNQSFRITILPQQYLRPVEDVATSQDDCYKFAISQSSTGTVMGAVIMEGFYVVFDRARKRIGFAVSACHVHDEFRTAAVEGPFVTLDMEDCGYNIPQTDESTLMTIAYVMAAICALFMLPLCLMVCQWRCLRCLRQQHDDFADDISLLK
modifications: full-length
notes: native full-length human BACE isoform (variant a), NM_012104
Take B1: the “Aβ release (% of control)” value in assay [1] was 193.15 ± 2.73 % of control.

B2: BACE455: new isoform of human beta-secretase (BACE) lacking exon 4, 455 amino acid residues, SEQ ID NO: 2 (protein, listed as Homo sapiens)
chain: MAQALPWLLLWMGAGVLPAHGTQHGIRLPLRSGLGGAPLGLRLPRETDEEPEEPGRRGSFVEMVDNLRGKSGQGYYVEMTVGSPPQTLNILVDTGSSNFAVGAAPHPFLHRYYQRQLSSTYRDLRKGVYVPYTQGKWEGELGTDLVSIPHGPNVTVRANIAAITESDKFFINGSNWEGILGLAYAEIARIIGGIDHSLYTGSLWYTPIRREWYYEVIIVRVEINGQDLKMDCKEYNYDKSIVDSGTTNLRLPKKVFEAAVKSIKAASSTEKFPDGFWLGEQLVCWQAGTTPWNIFPVISLYLMGEVTNQSFRITILPQQYLRPVEDVATSQDDCYKFAISQSSTGTVMGAVIMEGFYVVFDRARKRIGFAVSACHVHDEFRTAAVEGPFVTLDMEDCGYNIPQTDESTLMTIAYVMAAICALFMLPLCLMVCQWRCLRCLRQQHDDFADDISLLK
For B2, the C99 production result in assay [2] (SH-SY5Y cells transformed with the BACE455 construct vs empty vector) is “strongly increased”. Besides, the APP levels entry in assay [2] (overexpression of BACE455 in SH-SY5Y cells) was “no influence”. The “Aβ release (% of control)” value in assay [1] is listed as 199.95+18 % of control.
